# Results reported in patent publication US20220144932A1.
# How the values were obtained:
# [1] = biological target: Recombinant FAM19A5 rabbit Fc fusion protein (human; rabbit) (UniProt Q7Z5A7); assay: flow cytometry, blocking: FAM19A5-rFc (1 µM) with scFv-Cκ (5 µM) on mouse primary glial cells; blocked: binding of FAM19A5-rFc to the cells
# [2] = biological target: Recombinant FAM19A5 rabbit Fc fusion protein (human; rabbit) (UniProt Q7Z5A7); assay: flow cytometry, blocking: FAM19A5-rFc (1 µM) with scFv-Cκ (5 µM) on human glioblastoma cell line U87MG; blocked: binding of FAM19A5-rFc to the cells
binder,measurement,setting,value
"2-13 anti-FAM19A5 scFv human Cκ fusion protein (scFv, not shown: a dimerising Fc or GST) scFv: ALTQPSSVSANPGETVKITCSGGSYSYGWFQQKSPGSALVTVIYWDDERPSDIPSRFSGALSGSTNTLTITGVQADDEAVYFCGTEDISGTAGVFGAGTTLTVLGQSSRSSGGGGSSGGGGSAVTLDESGGGLQTPGGALSLVCKASGFTFSSHGMFWVRQTPGKGLEYVAEITNDGSGTNYGSAVKGRATISRDNGQSTVRLQLNNLRAEDTGTYFCARSTYECPGGFSCWGDTGQIDAWGHGTEVIVSS",percent reduction of MFI,[1],88.9%
same,percent reduction of MFI,[2],69.6%
